The text below walks through data of patent US9949489B2, “Methods for control of hemipteran insect stylet sheath structure formation” (The United States of America, as Represented by the …, priority 2015, dated 2018).

Assay [1] relates to D. citri stylet sheaths (ACP SSs). Put plainly: Degradation of preformed, solidified stylet sheaths by enzymes (MFC membrane or slide incubation). Conditions: for Sheath Degradation: enzyme concentration, pH and temperature per Table 4 (cellulase 1:25, pH 6.0, 60° C.); for Effect on preformed D. citri stylet sheaths: cellulase 1:25, pH 6.0, 60° C., 72 hours, Flavourzyme about 30 minutes, proteinase K 55° C. overnight. More on the design: species or system Diaphorina citri; key to Sheath Degradation: −: No effect apparent; +/−: inconclusive; +: apparent slight effect; ++: increased apparent effect; +++: high effect; ++++: very high effect; +++++: complete degradation of sheaths or inhibition of sheath synthesis. The procedure: In order to test cellulase's effect on preformed ACP SSs, formed, solidified stylet sheaths were harvested directly from the surface of an MFC membrane (in these experiments either plastic wrap or parafilm was used) as described herein and in Morgan et al. 2013, supra. Approximately 100 psyllids were placed into an MFC for about 24 hours. The MFCs consisted of D. citri caged individually and/or in groups within 100 mm×15 mm plastic Petri dishes. A single kitchen plastic wrap layer was stretched across the top of each Petri dish to seal the Petri dish from insect escape and to provide a stylet penetrable surface for insect probing.
Several MFCs (the Petri dishes covered with kitchen plastic wrap or parafilm and containing D. citri) were placed into clear Pyrex® baking dishes with the membrane (kitchen plastic wrap or parafilm) side up, and the Pyrex® baking dish is covered with a single layer of clear kitchen plastic wrap to prevent external contaminant interactions with the membrane surface during incubation. MFCs were incubated at a temperature of about 25° C., relative humidity of about 75%, and a light:dark cycle of about 14:1. Collection of partial stylet sheaths, shaft/branching portions without the flange, was performed using deionized water applied directly to the sheath surface to wash the surface of the MFC, and then the application of approximately 100 μl of an approximately 50 mM sodium phosphate buffer at a pH of approximately 6.0 for direct harvest of partial sheaths from the membrane surface using a bent glass rod to scour the plastic wrap surface to dislodge the stylet sheaths. The sodium phosphate buffer containing dislodged sheath shafts was removed using a pipette and placed in a microcentrifuge tube (1.5 ml tube), and cellulase (Sigma #C2605, Sigma Aldrich, St. Louis, Mo.) was added by ratio at approximately 1 part cellulase to 25 parts sodium phosphate buffer (approximately 1:25 ratio). Approximately 15 μl was then transferred to a pre-cleaned glass slide (Fisher, #12-550-19, Thermo Fisher Scientific, Inc., Waltham Mass.), covered with a premium cover slip, and edges sealed using clear nail polish CG, 3INI NL #Q004 SHN ON (CoverGirl, Hunt Valley, Md.) to keep the buffer from evaporating during incubation. This slide was then placed in an approximately 60° C. incubator of about 72 hours and observed at about 24 hour intervals.
FIGS. 3A, 3B, and 3C and FIGS. 3D, 3E, and 3F are light micrograph pictures of repeated experiments representing separate treatment of two salivary sheaths. FIG. 3A and FIG. 3D are separate salivary sheaths prior to the addition of cellulase. FIG. 3B and FIG. 3E are the same sheaths, respectively, after 72 hours incubation with cellulase. FIG. 3C and FIG. 3F are the same sheaths, respectively, when gentle pressure was applied to the coverslip over the sheaths that had been incubated with cellulase for 72 hours. […] Because of the observed result with cellulase, sheath degradation experiments as described above for cellulase were performed using a number of polysaccharide-degrading enzymes and proteases. […] Both carbohydrate-degrading enzymes and proteases were effective at degrading the sheaths.
While not wishing to be bound to any particular hypothesis, based on the results of Examples 1, 2, and 3, it is hypothesized that the structure of the ACP SSs could include protein cross-links that are catalyzed by an enzyme with an oxidative role, an enzyme at least somewhat similar to a lysyl oxidase. To determine if a protein is associated with the identified glucan, proteases were tested in experiments similar to Examples 1 and 2 above. The following proteases were added individually in separate experiments (described infra) to membranes on which D. citri adults were previously allowed to first form sheaths in the absence of proteases: Flavourzyme® (a protease cocktail), carboxypeptidase W, chymopapain, bromelain, papain, ficin, licheninase, laminarinase, and β-(1→3)-D-glucanase. […]

The test system of assay [2] is D. citri. The assay is described as follows: Liquid ACP diet sandwich feeding assay (MFC): inhibition of de novo stylet sheath formation. Type of assay: in vivo, Diaphorina citri. On the set-up: key: −: No effect apparent; +/−: inconclusive; +: apparent slight effect; ++: increased apparent effect; +++: high effect; ++++: very high effect; +++++: complete degradation of sheaths or inhibition of sheath synthesis. The following applies: enzyme in liquid ACP diet, about 24 h, 25° C., enzyme amounts and pH per Table 5 (cellulase approx 1 unit/μl). As to the method: (§1) The next step was to determine if addition of cellulase to the diet of D. citri would interfere with stylet sheath formation. A D. citri diet is prepared as described by Hall, David et al., “Research toward an artificial diet for adult Asian citrus psyllid,” Annals of the Entomological Society of America 103.4:611-617 (2010). Approximately 25 D. citri were collected into polystyrene Cellstar 35 mm×10 mm dishes (Griener Bio-One, Monroe, N.C.) that were then sealed using a single layer of Parafilm® M (Pechiney Plastic Packaging Company, Chicago, Ill.). Approximately 99 μl of liquid ACP diet (e.g., diet lacking the solidifying agar component, see Hall, et. al., 2010, supra) was mixed with approximately 1 μl of cellulase (Sigma Aldrich, St. Louis, Mo.) and mixed. […]
(§2) Because many biomolecule polymerizing enzymes require divalent cations as cofactors, the effect of ethylenediaminetetraacetic acid (EDTA), a chelator of divalent cations, on ACP SS formation was tested by adding EDTA to the previously described liquid ACP diet (see Hall et al., 2010, supra). […] Uncommon bands between the liquid ACP diet containing EDTA and liquid ACP diet without EDTA (negative control) lanes were cut out and analyzed by Orbitrap (Thermo Scientific, Waltham, Mass.) protein analysis, according to manufacturer's protocol. […]

Assay [3] relates to D. citri. The description is as above. The format is in vivo, Diaphorina citri. Conditions: about 24 h; cellulase approx 1 unit/μl; BAPN 100 mM; EDTA approx 2 mM; proteases per Table 5. As to the method: as §1, §2

B1: Proteinase K from Tritirachium album: Broad protease specificity; Fischer #BP1700-100 (protein, UniProt P06873 106-384, looked up)
Proteinase K: AAQTNAPWGLARISSTSPGTSTYYYDESAGQGSCVYVIDTGIEASHPEFEGRAQMVKTYYYSSRDGNGHGTHCAGTVGSRTYGVAKKTQLFGVKVLDDNGSGQYSTIIAGMDFVASDKNNRNCPKGVVASLSLGGGYSSSVNSAAARLQSSGVMVAVAAGNNNADARNYSPASEPSVCTVGASDRYDRRSSFSNYGSVLDIFGPGTSILSTWIGGSTRSISGTSMATPHVAGLAAYLMTLGKTTAASACRYIADTANKGDLSNIPFGTVNLLAYNNYQA
On to B1, for which the “Sheath Degradation” value in assay [1] (D. citri preformed sheaths) is “+++++”. In addition, the “Effect on preformed D. citri stylet sheaths” value in assay [1] is “completely dissolves”.

B2: Trypsin from bovine pancreas: Serine peptidase; Sigma #T8658 (protein, UniProt P00760 24-246, looked up)
Serine protease 1: IVGGYTCGANTVPYQVSLNSGYHFCGGSLINSQWVVSAAHCYKSGIQVRLGEDNINVVEGNEQFISASKSIVHPSYNSNTLNNDIMLIKLKSAASLNSRVASISLPTSCASAGTQCLISGWGNTKSSGTSYPDVLKCLKAPILSDSSCKSAYPGQITSNMFCAGYLEGGKDSCQGDSGGPVVCSGKLQGIVSWGSGCAQKNKPGVYTKVCNYVSWIKQTIASN
Take B2: in the assay with D. citri [2], the “Inhibition of Sheath Formation” value is given as “−”. For the same molecule, the “Effect on D. citri stylet sheath formation in liquid ACP diet” value in the assay on D. citri [3] is reported as “did not appear to have an inhibitory effect”. Further, the “Sheath Degradation” value in assay [1] (D. citri preformed sheaths) is “−”.

B3: Papain from papaya latex: Cysteine peptidase; Sigma #P5306 (protein, UniProt P00784 134-345, looked up)
Papain: IPEYVDWRQKGAVTPVKNQGSCGSCWAFSAVVTIEGIIKIRTGNLNEYSEQELLDCDRRSYGCNGGYPWSALQLVAQYGIHYRNTYPYEGVQRYCRSREKGPYAAKTDGVRQVQPYNEGALLYSIANQPVSVVLEAAGKDFQLYRGGIFVGPCGNKVDHAVAAVGYGPNYILIKNSWGTGWGENGYIRIKRGTGNSYGVCGLYTSSFYPVKN
Consider B3, for which the “Inhibition of Sheath Formation” value with D. citri [2] is given as “++++”. In addition, the “Effect on D. citri stylet sheath formation in liquid ACP diet” value in the assay with D. citri [3] is on record as “capable of inhibiting the formation of ACP SSs”. The “Sheath Degradation” value in assay [1] (D. citri preformed sheaths) is listed as “++”.

B4: Amyloglucosidase from Aspergillus niger: Hydrolyses α-D-(1-4), α-D-(1-6) and α-D-(1-3) glucosidic bonds of oligosaccharides; Sigma #A7420 (protein, UniProt P69328 25-640, looked up)
Glucoamylase: ATLDSWLSNEATVARTAILNNIGADGAWVSGADSGIVVASPSTDNPDYFYTWTRDSGLVLKTLVDLFRNGDTSLLSTIENYISAQAIVQGISNPSGDLSSGAGLGEPKFNVDETAYTGSWGRPQRDGPALRATAMIGFGQWLLDNGYTSTATDIVWPLVRNDLSYVAQYWNQTGYDLWEEVNGSSFFTIAVQHRALVEGSAFATAVGSSCSWCDSQAPEILCYLQSFWTGSFILANFDSSRSGKDANTLLGSIHTFDPEAACDDSTFQPCSPRALANHKEVVDSFRSIYTLNDGLSDSEAVAVGRYPEDTYYNGNPWFLCTLAAAEQLYDALYQWDKQGSLEVTDVSLDFFKALYSDAATGTYSSSSSTYSSIVDAVKTFADGFVSIVETHAASNGSMSEQYDKSDGEQLSARDLTWSYAALLTANNRRNSVVPASWGETSASSVPGTCAATSAIGTYSSVTVTSWPSIVATGGTTTTATPTGSGSVTSTSKTTATASKTSTSTSSTSCTTPTAVAVTFDLTATTTYGENIYLVGSISQLGDWETSDGIALSADKYTSSDPLWYVTVTLPAGESFEYKFIRIESDDSVEWESDPNREYTVPQACGTSTATVTDTWR
Take B4: in assay [1] (D. citri preformed sheaths), the “Sheath Degradation, remark in words” value is reported as “Sheaths swell” and the “Sheath Degradation” value is “++”. Further, in assay [1], the “Effect on preformed D. citri stylet sheaths” value was “adversely impact stylet sheath integrity”.
